From patent US20250352667A1

Tests used:
[1] = biological target: KEAP1 (wild-type full-length), His-tagged (human) (UniProt Q14145); test: AlphaScreen; 38.4 nM FLAG-NRF2, 150 nM His-KEAP1; signal against NRF2 only; control for I86V
[2] = biological target: KEAP1 (wild-type full-length), His-tagged (human) (UniProt Q14145); test: AlphaScreen; 38.4 nM FLAG-NRF2, 150 nM His-KEAP1; Rep 1; control for I28V
[3] = biological target: KEAP1 (wild-type full-length), His-tagged (human) (UniProt Q14145); test: AlphaScreen; FLAG-NRF2 wt isoform 1 19.2 nM, His-KEAP1 150 nM; Rep 2; positive control for I86V
[4] = biological target: KEAP1 (wild-type full-length), His-tagged (human) (UniProt Q14145); test: AlphaScreen; NRF2 wt isoform 1 1228.8 nM, KEAP1 150 nM; signal against NRF2-only control; control for Q75R
[5] = biological target: KEAP1 (wild-type full-length), His-tagged (human) (UniProt Q14145); test: AlphaScreen; 9.6 nM FLAG-NRF2, 150 nM His-KEAP1; Rep 1; control for I86V
[6] = biological target: KEAP1 (wild-type full-length), His-tagged (human) (UniProt Q14145); test: AlphaScreen; 2.4 nM FLAG-NRF2, 150 nM His-KEAP1; signal against NRF2 only; control for I86V
[7] = biological target: KEAP1 (wild-type full-length), His-tagged (human) (UniProt Q14145); test: AlphaScreen, all variants on one plate; average of three conditions, KEAP1 150 nM; the reference itself
[8] = biological target: KEAP1 (wild-type full-length), His-tagged (human) (UniProt Q14145); test: AlphaScreen; FLAG-NRF2 wt isoform 1 9.6 nM, His-KEAP1 150 nM; Rep 2; positive control for Q75R
[9] = biological target: KEAP1 (wild-type full-length), His-tagged (human) (UniProt Q14145); test: AlphaScreen, all variants on one plate; optimal condition (19.2 nM NRF2), KEAP1 150 nM; relative to NRF2 (WT) isoform 1
[10] = biological target: KEAP1 (wild-type full-length), His-tagged (human) (UniProt Q14145); test: AlphaScreen; 153.6 nM FLAG-NRF2, 150 nM His-KEAP1; signal against NRF2 only
[11] = biological target: KEAP1 (wild-type full-length), His-tagged (human) (UniProt Q14145); test: AlphaScreen; 38.4 nM FLAG-NRF2, 150 nM His-KEAP1; signal against NRF2 only
[12] = biological target: KEAP1 (wild-type full-length), His-tagged (human) (UniProt Q14145); test: AlphaScreen; 19.2 nM FLAG-NRF2, 150 nM His-KEAP1; Repeat 2 (same value as in Table 27)
[13] = biological target: KEAP1 (wild-type full-length), His-tagged (human) (UniProt Q14145); test: AlphaScreen; 38.4 nM FLAG-NRF2, 150 nM His-KEAP1; Rep 2
[14] = biological target: KEAP1 (wild-type full-length), His-tagged (human) (UniProt Q14145); test: AlphaScreen, all variants on one plate; lower condition (9.6 nM NRF2), KEAP1 150 nM; relative to NRF2 (WT) isoform 1
[15] = biological target: KEAP1 (wild-type full-length), His-tagged (human) (UniProt Q14145); test: AlphaScreen, all variants on one plate; upper condition (38.4 nM NRF2), KEAP1 150 nM; relative to NRF2 (WT) isoform 1
[16] = biological target: KEAP1 (wild-type full-length), His-tagged (human) (UniProt Q14145); test: AlphaScreen; 1228.8 nM FLAG-NRF2, 150 nM His-KEAP1; signal against NRF2 only
[17] = biological target: KEAP1 (wild-type full-length), His-tagged (human) (UniProt Q14145); test: AlphaScreen; standard deviation of three conditions; against wild-type NRF2 isoform 1
[18] = biological target: KEAP1 (wild-type full-length), His-tagged (human) (UniProt Q14145); test: AlphaScreen, all variants on one plate; average of three conditions ± standard deviation, KEAP1 150 nM; relative to NRF2 (WT) isoform 1
[19] = biological target: KEAP1 (wild-type full-length), His-tagged (human) (UniProt Q14145); test: AlphaScreen; average ± standard deviation over three NRF2 concentrations, KEAP1 150 nM; relative to wild-type NRF2 isoform 1
[20] = biological target: KEAP1 (wild-type full-length), His-tagged (human) (UniProt Q14145); test: AlphaScreen; FLAG-NRF2 I86V 153.6 nM, His-KEAP1 150 nM; Rep 1
[21] = biological target: KEAP1 (wild-type full-length), His-tagged (human) (UniProt Q14145); test: AlphaScreen; FLAG-NRF2 I86V 19.2 nM, His-KEAP1 150 nM; Rep 1
[22] = biological target: KEAP1 (wild-type full-length), His-tagged (human) (UniProt Q14145); test: AlphaScreen; FLAG-NRF2 I86V 19.2 nM, His-KEAP1 150 nM; Rep 3
[23] = biological target: KEAP1 (wild-type full-length), His-tagged (human) (UniProt Q14145); test: AlphaScreen; NRF2 I86V 153.6 nM, KEAP1 150 nM; signal against NRF2-only control
[24] = biological target: KEAP1 (wild-type full-length), His-tagged (human) (UniProt Q14145); test: AlphaScreen; FLAG-NRF2 I86V 38.4 nM, His-KEAP1 150 nM; Rep 2
[25] = biological target: KEAP1 (wild-type full-length), His-tagged (human) (UniProt Q14145); test: AlphaScreen; FLAG-NRF2 Q75R 9.6 nM, His-KEAP1 150 nM; Rep 2
[26] = biological target: KEAP1 (wild-type full-length), His-tagged (human) (UniProt Q14145); test: AlphaScreen; NRF2 Q75R 19.2 nM, KEAP1 150 nM; relative to wild-type NRF2 isoform 1 (100 %)
[27] = biological target: KEAP1 (wild-type full-length), His-tagged (human) (UniProt Q14145); test: AlphaScreen; FLAG-NRF2 Q75R 307.2 nM, His-KEAP1 150 nM; Rep 2

Chain of KEAP1 (wild-type full-length), His-tagged (human) (Q14145 2-624 limits assumed): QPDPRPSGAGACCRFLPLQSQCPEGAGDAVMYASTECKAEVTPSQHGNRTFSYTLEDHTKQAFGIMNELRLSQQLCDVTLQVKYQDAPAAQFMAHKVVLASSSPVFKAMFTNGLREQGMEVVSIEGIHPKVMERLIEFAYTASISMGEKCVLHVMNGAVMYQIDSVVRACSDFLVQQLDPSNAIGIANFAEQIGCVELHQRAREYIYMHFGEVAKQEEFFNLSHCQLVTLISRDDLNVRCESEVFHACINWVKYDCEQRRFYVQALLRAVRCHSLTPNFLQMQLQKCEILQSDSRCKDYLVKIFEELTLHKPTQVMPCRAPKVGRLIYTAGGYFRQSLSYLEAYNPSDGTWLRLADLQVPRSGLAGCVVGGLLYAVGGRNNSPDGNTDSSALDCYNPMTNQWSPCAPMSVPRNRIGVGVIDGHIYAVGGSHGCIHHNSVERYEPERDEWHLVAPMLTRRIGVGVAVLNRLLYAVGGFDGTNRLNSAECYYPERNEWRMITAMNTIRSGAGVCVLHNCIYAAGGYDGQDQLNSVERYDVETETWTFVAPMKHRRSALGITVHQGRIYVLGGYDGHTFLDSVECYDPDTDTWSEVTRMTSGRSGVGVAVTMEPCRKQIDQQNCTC

B1: NRF2 isoform 1 (wild-type full-length), FLAG-tagged (protein)
chain: MMDLELPPPGLPSQQDMDLIDILWRQDIDLGVSREVFDFSQRRKEYELEKQKKLEKERQEQLQKEQEKAFFAQLQLDEETGEFLPIQPAQHIQSETSGSANYSQVAHIPKSDALYFDDCMQLLAQTFPFVDDNEVSSATFQSLVPDIPGHIESPVFIATNQAQSPETSVAQVAPVDLDGMQQDIEQVWEELLSIPELQCLNIENDKLVETTMVPSPEAKLTEVDNYHFYSSIPSMEKEVGNCSPHFLNAFEDSFSSILSTEDPNQLTVNSLNSDATVNTDFGDEFYSAFIAEPSISNSMPSPATLSHSLSELLNGPIDVSDLSLCKAFNQNHPESTAEFNDSDSGISLNTSPSVASPEHSVESSSYGDTLLGLSDSEVEELDSAPGSVKQNGPKTPVHSSGDMVQPLSPSQGQSTHVHDAQCENTPEKELPVSPGHRKTPFTKDKHSSRLEAHLTRDELRAKALHIPFPVEKIINLPVVDFNEMMSKEQFNEAQLALIRDIRRRGKNKVAAQNCRKRKLENIVELEQDLDHLKDEKEKLLKEKGENDKSLHLLKKQLSTLYLEVFSMLRDEDGKPYSPSEYSLQQTRDGNVFLVPKSKKPDVKKN
B1 gave a S/N [1] of 3, an A-counts [2] of 2000 A-counts and an A-counts (NRF2 plus KEAP1) [3] of 3270 A-counts. For the same binder, the S/N [4] was 0.9, the A-counts [5] was 2640 A-counts and the S/N [6] was 1.7. The % Disruption in Binding (Reported Values) [7] was 0% and the A-counts (NRF2 plus KEAP1) [8] was 900 A-counts.

B2: NRF2 isoform 1 (I28V full-length), FLAG-tagged (protein)
chain: MMDLELPPPGLPSQQDMDLIDILWRQDVDLGVSREVFDFSQRRKEYELEKQKKLEKERQEQLQKEQEKAFFAQLQLDEETGEFLPIQPAQHIQSETSGSANYSQVAHIPKSDALYFDDCMQLLAQTFPFVDDNEVSSATFQSLVPDIPGHIESPVFIATNQAQSPETSVAQVAPVDLDGMQQDIEQVWEELLSIPELQCLNIENDKLVETTMVPSPEAKLTEVDNYHFYSSIPSMEKEVGNCSPHFLNAFEDSFSSILSTEDPNQLTVNSLNSDATVNTDFGDEFYSAFIAEPSISNSMPSPATLSHSLSELLNGPIDVSDLSLCKAFNQNHPESTAEFNDSDSGISLNTSPSVASPEHSVESSSYGDTLLGLSDSEVEELDSAPGSVKQNGPKTPVHSSGDMVQPLSPSQGQSTHVHDAQCENTPEKELPVSPGHRKTPFTKDKHSSRLEAHLTRDELRAKALHIPFPVEKIINLPVVDFNEMMSKEQFNEAQLALIRDIRRRGKNKVAAQNCRKRKLENIVELEQDLDHLKDEKEKLLKEKGENDKSLHLLKKQLSTLYLEVFSMLRDEDGKPYSPSEYSLQQTRDGNVFLVPKSKKPDVKKN
Binder B2 has a % Disruption in Binding [9] of 22.6%, a S/N [10] of 1.7 and a S/N [11] of 2.7. It also gave an A-counts [12] of 1700 A-counts, an A-counts [13] of 1680 A-counts and a % Disruption in Binding [14] of 16.7%. The % Disruption in Binding [15] was 21.5%, the S/N [16] was 0.9 and the Reported Value (standard deviation of reduction in binding) [17] was 7.2%. It also gave a % Disruption in Binding (Reported Values) [18] of 20.3%.

B3: NRF2 isoform 1 (I86V full-length), FLAG-tagged (protein)
chain: MMDLELPPPGLPSQQDMDLIDILWRQDIDLGVSREVFDFSQRRKEYELEKQKKLEKERQEQLQKEQEKAFFAQLQLDEETGEFLPVQPAQHIQSETSGSANYSQVAHIPKSDALYFDDCMQLLAQTFPFVDDNEVSSATFQSLVPDIPGHIESPVFIATNQAQSPETSVAQVAPVDLDGMQQDIEQVWEELLSIPELQCLNIENDKLVETTMVPSPEAKLTEVDNYHFYSSIPSMEKEVGNCSPHFLNAFEDSFSSILSTEDPNQLTVNSLNSDATVNTDFGDEFYSAFIAEPSISNSMPSPATLSHSLSELLNGPIDVSDLSLCKAFNQNHPESTAEFNDSDSGISLNTSPSVASPEHSVESSSYGDTLLGLSDSEVEELDSAPGSVKQNGPKTPVHSSGDMVQPLSPSQGQSTHVHDAQCENTPEKELPVSPGHRKTPFTKDKHSSRLEAHLTRDELRAKALHIPFPVEKIINLPVVDFNEMMSKEQFNEAQLALIRDIRRRGKNKVAAQNCRKRKLENIVELEQDLDHLKDEKEKLLKEKGENDKSLHLLKKQLSTLYLEVFSMLRDEDGKPYSPSEYSLQQTRDGNVFLVPKSKKPDVKKN
In the case of B3, the Reported Value (reduction in binding) [19] is reported as 3.2%, the % Disruption in Binding [9] is reported as 9.2% and the % Disruption in Binding [14] is reported as 5.7%. It also gave a % Disruption in Binding [15] of 10.5%, an A-counts (NRF2 plus KEAP1) [20] of 2380 A-counts and an A-counts (NRF2 plus KEAP1) [21] of 3120 A-counts. The A-counts (NRF2 plus KEAP1) [22] was 2970 A-counts, the S/N [23] was 2 and the % Disruption in Binding (Reported Values) [18] was 8.4%. The A-counts (NRF2 plus KEAP1) [24] was 2920 A-counts.

B4: NRF2 isoform 1 (Q75R full-length), FLAG-tagged (protein)
chain: MMDLELPPPGLPSQQDMDLIDILWRQDIDLGVSREVFDFSQRRKEYELEKQKKLEKERQEQLQKEQEKAFFAQLRLDEETGEFLPIQPAQHIQSETSGSANYSQVAHIPKSDALYFDDCMQLLAQTFPFVDDNEVSSATFQSLVPDIPGHIESPVFIATNQAQSPETSVAQVAPVDLDGMQQDIEQVWEELLSIPELQCLNIENDKLVETTMVPSPEAKLTEVDNYHFYSSIPSMEKEVGNCSPHFLNAFEDSFSSILSTEDPNQLTVNSLNSDATVNTDFGDEFYSAFIAEPSISNSMPSPATLSHSLSELLNGPIDVSDLSLCKAFNQNHPESTAEFNDSDSGISLNTSPSVASPEHSVESSSYGDTLLGLSDSEVEELDSAPGSVKQNGPKTPVHSSGDMVQPLSPSQGQSTHVHDAQCENTPEKELPVSPGHRKTPFTKDKHSSRLEAHLTRDELRAKALHIPFPVEKIINLPVVDFNEMMSKEQFNEAQLALIRDIRRRGKNKVAAQNCRKRKLENIVELEQDLDHLKDEKEKLLKEKGENDKSLHLLKKQLSTLYLEVFSMLRDEDGKPYSPSEYSLQQTRDGNVFLVPKSKKPDVKKN
With B4 the Reported Value (reduction in binding) [19] was 30.2%, the % Disruption in Binding [9] was 28.3% and the A-counts (NRF2 plus KEAP1) [25] was 1090 A-counts. The % Disruption in Binding [14] was 29.3%, the % Disruption in Binding [15] was 25.1% and the Binding Percentage [26] was 63.7%. The % Disruption in Binding (Reported Values) [18] was 27.5% and the A-counts (NRF2 plus KEAP1) [27] was 1020 A-counts.
